Measurements reported in patent publication US20150274820A1 (ESBATECH AN ALCON BIOMEDICAL RESEARCH UNIT, published 2015).
Substitutions are numbered along the chain they refer to. Names may count otherwise.

T1: recombinant human VEGF121 (human, UniProt P15692 27-147)
T1 construct: mature; Isoform VEGF121 of the entry; also called hVEGF121
T1 sequence (looked up): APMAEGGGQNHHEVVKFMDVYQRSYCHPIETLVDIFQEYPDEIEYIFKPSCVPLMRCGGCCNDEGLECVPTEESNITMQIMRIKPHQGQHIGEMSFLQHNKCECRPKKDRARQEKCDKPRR

T2: recombinant human VEGF110 (human, UniProt P15692-4 27-136, limits assumed)
T2 construct: Made in house; also called hVEGF110
T2 sequence (looked up): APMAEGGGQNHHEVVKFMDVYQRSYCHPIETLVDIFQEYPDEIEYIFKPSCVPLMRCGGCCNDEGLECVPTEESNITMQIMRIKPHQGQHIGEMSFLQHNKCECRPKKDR

T3: recombinant human PLGF (human, UniProt P49763-2 19-149, limits assumed)
T3 construct: Negative control; also called PIGF
T3 sequence (looked up): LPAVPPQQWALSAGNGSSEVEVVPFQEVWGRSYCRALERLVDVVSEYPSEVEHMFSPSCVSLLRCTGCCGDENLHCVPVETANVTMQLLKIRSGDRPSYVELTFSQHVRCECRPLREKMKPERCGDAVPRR

B1: 610-min (scFv)
scFv: EIVMTQSPSTLSASVGDRVIITCQASQSISSWLSWYQQKPGKAPKLLIYQASTLASGVPSRFSGSGSGAEFTLTISSLQPDDFATYYCQNNYGFRSYGGAFGQGTKLTVLGGGGGSGGGGSGGGGSGGGGSEVQLVESGGGLVQPGGSLRLSCAASGIDFSGAYYMGWVRQAPGKGLEWVSYIDYDGDRYYASWAKGRFTISRDNSKNTLYLQMNSLRAEDTAVYYCAKSDYSSGWGTDIWGQGTLVTVSS
notes: VL and VH tied by name; also called Protein Nr
B2: 610-max (scFv)
scFv: B1 scFv with A69T, A154T, S181G, R203K, N205T, L210V, K229R
notes: as for B1
B3: 435-min (scFv)
scFv: EIVMTQSPSTLSASVGDRVIITCQASQSIGSSLAWYQQKPGKAPKLLIYTAANLASGVPSRFSGSGSGAEFTLTISSLQPDDFATYYCQNFATSDTVTFGQGTKLTVLGGGGGSGGGGSGGGGSGGGGSEVQLVESGGGLVQPGGSLRLSCAASGFSLNTNYWMCWVRQAPGKGLEWVSCMYTGSYNRAYYASWAKGRFTISRDNSKNTLYLQMNSLRAEDTAVYYCAKGSNWYSDLWGQGTLVTVSS
notes: VL and VH tied by name; also called Protein Nr; 944
B4: 375-min (scFv)
scFv: EIVMTQSPSTLSASVGDRVIITCQASENINIWLSWYQQKPGKAPKLLIYQASKLASGVPSRFSGSGSGAEFTLTISSLQPDDFATYYCQNNYSYNRYGAPFGQGTKLTVLGGGGGSGGGGSGGGGSGGGGSEVQLVESGGGLVQPGGSLRLSCAASGFSFTTTDYMCWVRQAPGKGLEWVSCILAGDGSTYYANWAKGRFTISRDNSKNTLYLQMNSLRAEDTAVYYCAKSDPASSWSFALWGQGTLVTVSS
notes: VL and VH tied by name; also called Protein Nr; 857
B5: 375-max (scFv)
scFv: B4 scFv with A69T, E70Q, A154K, S181G, I202G, R204K, N206T, L211V, K230R
notes: VL and VH tied by name; also called Protein Nr; 873
B6: 511max_min (scFv)
scFv: EIVMTQSPSTLSASVGDRVIITCQASQSINIWLSWYQQKPGKAPKLLIYRASTLASGVPSRFSGSGSGTEFTLTISSLQPDDFATYYCQANYAYSAGYGAAFGQGTKLTVLGGGGGSGGGGSGGGGSGGGGSEVQLVESGGGLVQPGGSLRLSCAASGFSLNTYYMNWVRQAPGKGLEWVSIIAPDDTTYYASWAKSRFTISRDNSKNTLYLQMNSLRAEDTAVYYCAKSGDTTAWGADIWGQGTLVTVSS
notes: also called Protein Nr; 905
B7: 511min_max (scFv)
scFv: B6 scFv with L33C, T69A, A155T, A156V, S181G, F199S, N205T, L210V, K229R
notes: also called Protein Nr; 904
B8: 534-min C-His (scFv)
scFv: EIVMTQSPSTLSASVGDRVIITCQASQSINIWLSWYQQKPGKAPKLLIYKESTLASGVPSRFSGSGSGAEFTLTISSLQPDDFATYYCQNNYDSGNNGFPFGQGTKLTVLGGGGGSGGGGSGGGGSGGGGSEVQLVESGGGLVQPGGSLRLSCAASGFSLSYYYMSWVRQAPGKGLEWVSIIGPGDYTDYASWAKGRFTISRDNSKNTLYLQMNSLRAEDTAVYYCAKGDDNSGWGEDIWGQGTLVTVSS
notes: VL and VH tied by name; His tag only named (C-His); also called Protein Nr; 807; not shown: C-terminal His tag
B9: 578-max FW1.4_DHP (scFv)
scFv: EIVMTQSPSTLSASVGDRVIITCQASEIIHSWLAWYQQKPGKAPKLLIYLASTLASGVPSRFSGSGSGTQFTLTISSLQPDDFATYYCQNVYLASTNGANFGQGTKLTVLGGGGGSGGGGSGGGGSGGGGSEVQLVESGGGSVQPGGSLRLSCTASGFSLTDYYYMTWVRQAPGKGLEWVGFIDPDDDPYYATWAKGRFTISRDTSKNTVYLQMNSLRAEDTATYYCAGGDHNSGWGLDIWGQGTTVTVSS
notes: Tied by name only; also called Protein Nr; 960
B10: 578min_max V89L (scFv)
scFv: B9 scFv with T69A, Q70E, S142L, V210L, T224V, T246L
notes: the VH entry already carries V89L; tied by name; also called Protein Nr; 980
B11: 578min_max T84N_V89A (scFv)
scFv: B9 scFv with T69A, Q70E, S142L, T205N, V210A, T224V, T246L
notes: the VH entry already carries the changes; tied by name; also called Protein Nr; 1009
B12: 578-max-min (scFv)
scFv: B9 scFv with S142L, T154A, G181S, T205N, V210L, T224V, G229K, T246L
notes: also called Protein Nr; 902
B13: 578min_max T84N (scFv)
scFv: B9 scFv with T69A, Q70E, S142L, T205N, T224V, T246L
notes: the VH entry already carries T84N; tied by name; also called Protein Nr
B14: 578min_max V89A (scFv)
scFv: B9 scFv with T69A, Q70E, S142L, V210A, T224V, T246L
notes: the VH entry already carries V89A; tied by name; also called Protein Nr; 978
B15: 567-min (scFv)
scFv: EIVMTQSPSTLSASVGDRVIITCQADQSIYIWLSWYQQKPGKAPKLLIYKASTLESGVPSRFSGSGSGAEFTLTISSLQPDDFATYYCQNNAHYSTNGGTFGQGTKLTVLGGGGGSGGGGSGGGGSGGGGSEVQLVESGGGLVQPGGSLRLSCAASGFSLSDYYMCWVRQAPGKGLEWVSCLDYFGSTDDASWAKGRFTISRDNSKNTLYLQMNSLRAEDTAVYYCAKTDDSRGWGLNIWGQGTLVTVSS
notes: also called Protein Nr; 884

Tests used:
[1] = target: T4, recombinant human VEGF165 (human, UniProt P15692 27-191); assay: Biacore SPR, VEGF immobilized, pH 5
T4 construct: mature; Isoform VEGF165 of the entry; also called hVEGF165; hVEGF
Experimental: (§1) In this example, the Biacore-binding ability of scFvs was tested and the binding affinity was measured using the exemplary surface plasmon resonance method with BIAcore™-T100. The VEGF proteins, tested for binding by these scFv candidates, in this example and later examples include purified Escherichia coli-expressed recombinant human VEGF₁₆₅ (PeproTech EC Ltd.), recombinant human VEGF₁₂₁ (PeproTech EC Ltd.), recombinant human VEGF₁₁₀ (ESBATech AG), recombinant murine VEGF₁₆₄ (PeproTech EC Ltd.), recombinant rat VEGF₁₆₄ (Biovision), recombinant rabbit VEGF₁₁₀ (ESBATech AG), and recombinant human PLGF (PeproTech EC Ltd.). For the surface plasmon resonance experiment, carboxymethylated dextran biosensor chips (CM4, GE Healthcare) were activated with N-ethyl-N′-(3-dimethylaminopropyl) carbodiimide hydrochloride and N-hydroxysuccinimide according to the supplier's instructions. Each of the 6 different VEGF forms, as exemplified above, was coupled to 1 of the 4 different flow cells on a CM4 sensor chip using a standard amine-coupling procedure. […] The 4th flow cell of each chip was treated similarly except no proteins were immobilized prior to blocking, and the flow cell was used as in-line reference. […] Dissociation of the anti-VEGF scFv from the VEGF on the CM4 chip was allowed to proceed for 10 min at 25° C. Sensorgrams were generated for each anti-VEGF scFv sample after in-line reference cell correction followed by buffer sample subtraction. The apparent dissociation rate constant (kd), the apparent association rate constant (kₐ) and the apparent dissociation equilibrium constant (KD) were calculated using one-to-one Langmuir binding model with BIAcore T100 evaluation Software version 1.1.

[2] = target: T4, recombinant human VEGF165; assay: Biacore SPR, VEGF immobilized, pH 7.4
Experimental: as §1

[3] = target: T4, recombinant human VEGF165; assay: Biacore SPR, VEGF immobilized, pH 5; remark: listed apart in the source
Experimental: as §1, with “1.1. […]” for “1.1.”

[4] = target: recombinant rat VEGF164 (rat) (UniProt P16612); assay: Biacore SPR, VEGF immobilized, pH 5
[5] = target: recombinant murine VEGF164 (mouse) (UniProt Q00731); assay: Biacore SPR, VEGF immobilized, pH 5
[6] = target: T4, recombinant human VEGF165; assay: Biacore SPR, VEGF immobilized, pH 5; remark: listed apart in the source
Experimental: as §1

[7] = target: T1, recombinant human VEGF121; assay: Biacore SPR, VEGF immobilized, pH 5
Experimental: as §1

[8] = target: T2, recombinant human VEGF110; assay: Biacore SPR, VEGF immobilized, pH 5
Experimental: as §1

recombinant human PLGF = target: T3, recombinant human PLGF; assay: Biacore SPR, PlGF immobilized, pH 5
Experimental: as §1

T4 sequence (P15692 other isoform, or with tags, fused parts or gaps): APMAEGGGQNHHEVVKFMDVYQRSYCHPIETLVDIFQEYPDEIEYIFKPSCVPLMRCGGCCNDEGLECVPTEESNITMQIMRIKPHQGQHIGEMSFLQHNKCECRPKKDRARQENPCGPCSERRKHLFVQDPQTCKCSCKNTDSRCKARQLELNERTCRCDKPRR

Row | Binder | koff [1] | kon [1] | kon [2] | Kd [3] | koff [3] | kon [3] | other results
1 | B1 | 0.00265 s⁻¹ | 251000 M⁻¹ s⁻¹ | – | – | – | – | –
2 | B2 | 0.000601 s⁻¹ | 509000 M⁻¹ s⁻¹ | > 1e+08 M⁻¹ s⁻¹ | – | – | – | –
3 | B3 | – | – | 495000 M⁻¹ s⁻¹ | – | – | – | koff [2]: 0.0143 s⁻¹
4 | B4 | 0.00501 s⁻¹ | 927000 M⁻¹ s⁻¹ | > 1e+08 M⁻¹ s⁻¹ | – | – | – | –
5 | B5 | 0.00655 s⁻¹ | 2.44e+06 M⁻¹ s⁻¹ | 5.09e+07 M⁻¹ s⁻¹ | – | – | – | koff [2]: 0.242 s⁻¹
6 | B6 | – | – | – | 1.48 nM | 0.000754 s⁻¹ | 511000 M⁻¹ s⁻¹ | –
7 | B7 | – | – | – | 0.278 nM | 0.000102 s⁻¹ | 366000 M⁻¹ s⁻¹ | –
8 | B8 | 0.00921 s⁻¹ | 271000 M⁻¹ s⁻¹ | – | – | – | – | –
9 | B9 | – | – | – | 0.266 nM | 0.000248 s⁻¹ | 930000 M⁻¹ s⁻¹ | –
10 | B10 | – | – | – | 2.13 nM | 0.00187 s⁻¹ | 875000 M⁻¹ s⁻¹ | –
11 | B11 | – | – | – | 0.615 nM | 0.000493 s⁻¹ | 801000 M⁻¹ s⁻¹ | –
12 | B12 | – | – | – | 6.55 nM | 0.00883 s⁻¹ | 1.35e+06 M⁻¹ s⁻¹ | –
13 | B13 | – | – | – | 0.971 nM | 0.0007 s⁻¹ | 721000 M⁻¹ s⁻¹ | –
14 | B14 | – | – | – | 1.2 nM | 0.000612 s⁻¹ | 509000 M⁻¹ s⁻¹ | –
15 | B15 | 0.000461 s⁻¹ | 2.01e+06 M⁻¹ s⁻¹ | 1.11e+06 M⁻¹ s⁻¹ | – | – | – | koff [2]: 0.0007 s⁻¹; koff [4]: 0.00048 s⁻¹; kon [4]: 1.72e+06 M⁻¹ s⁻¹; koff [5]: 0.00035 s⁻¹; kon [5]: 2.06e+06 M⁻¹ s⁻¹; koff [6]: 0.000461 s⁻¹; kon [6]: 2.01e+06 M⁻¹ s⁻¹; koff [7]: 4.54e-05 s⁻¹; kon [7]: 1.89e+06 M⁻¹ s⁻¹; koff [8]: 3.82e-05 s⁻¹; kon [8]: 1.52e+06 M⁻¹ s⁻¹; binding result (recombinant human PLGF): no binding
